Substrate: O=C(O)C(=O)[C@@H](O)[C@H](O)C(=O)CO
Test: Spectrophotometric enzymatic activity (decrease in absorption at 340 nm), purified enzyme solution of Example 1
Assay type: biochemical, Corynebacterium sp. No. 20A-77 mutant (FERM-BP 108)
Conditions: other: varying concentrations of Ca-25DKG, 0.1M TB pH 7, 30° C.

B1: 25DKG-Rase (Corynebacterium sp. SHS752001) (protein)
chain: PNIPTISLNDGRPFAEPGLGTYNLRGDEGVAAMVAAIDSGYRLLDTAVNYENESEVGRAVRASSVDRDELIVASKIPGRQHGRAEAVDSIRGSLDRLGLDVIDLQLIHWPNPSVGRWLDTWRGMIDAREAGLVRSIGVSNFTEPMLKTLIDETGVTPAVNQVELHPYFPQAALRAFHDEHGIRTESWSPLARRSELLTEQLLQELAVVYGVTPTQVVLRWHVQLGSTPIPKSADPDRQRENADVFGFALTADQVDAISGLERGRLWDGDPDTHEEM
notes: The enzyme is an intracellular enzyme extracted from the cells of the 2KLG producing strain; made in house; host or cells: natural producer Corynebacterium sp; No. 20A-77 mutant FERM-BP 108, enzyme purified from sonicated cells; not recombinant
Question: B1 was tested. Which Km did it give?
Answer: 1800 ± 1000 µM

— US4748122A, “2,5-diketo-D-gluconic acid reductase” (Shionogi & Co., Ltd., priority 1983, dated 1988)
